Article PMC10937380 (Nature, 2024)

Experiments:
[1] = target: T1, E3mUU(ΔUFIM) with UFBP1(R265A) (UniProt O94874 1-179; Q96HY6 204-314, R265A); test: SEC; analytical SEC, Superdex 200 Increase 3.2/300, 25 mM HEPES pH 7.5, 200 mM NaCl, 0.5 mM TCEP; components mixed and kept on ice before loading; peak fractions on Coomassie gels; details: both partners purified
T1 construct: UFL1; limits as stated for the crystallised E3mUU(ΔUFIM) construct; UFBP1 204-C; limits as for m14; source: recombinant, purified (HisTrap, HiLoad 26/600 Superdex 75 pg)

E3mUU(ΔUFIM) = target: T2, E3mUU(ΔUFIM) (UniProt O94874 1-179; Q96HY6 204-314); test: as above; details: both partners purified
T2 construct: UFL1; limits as stated for the crystallised E3mUU(ΔUFIM) construct; for the crystal 6×His-TEV-UFL1(1–179) was co-expressed with a UFC1-UFBP1 204-C fusion and the His tag was not cleaved; source: recombinant, purified (HisTrap, HiLoad 26/600 Superdex 75 pg)

Binder | binding result [1] | binding result (E3mUU(ΔUFIM))
UFC1 (enzyme, free UFC1 in SEC and ITC; also called E2) MADEATRRVVSEIPVLKTNAGPRDRELWVQRLKEEYQSLIRYVENNKNADNDWFRLESNKEGTRWFGKCWYIHDLLKYEFDIEFDIPITYPTTAPEIAVPELDGKTAKMYRGGKICLTDHFKPLWARNVPKFGLAHLMALGLGPWLAVEIPDLIQKGVIQHKEKCNQ | binds | 
UFC1(D50A) (enzyme) MADEATRRVVSEIPVLKTNAGPRDRELWVQRLKEEYQSLIRYVENNKNAANDWFRLESNKEGTRWFGKCWYIHDLLKYEFDIEFDIPITYPTTAPEIAVPELDGKTAKMYRGGKICLTDHFKPLWARNVPKFGLAHLMALGLGPWLAVEIPDLIQKGVIQHKEKCNQ |  | binds
